Sequences and labels used below:
B1: w830 clonotype 4 (TCR)
alpha TRAV12-1*01 TRAJ43*01 CDR3: CVLNNNDMRF
beta TRBV19*01 TRBJ1-5*01 CDR3: CASSILGASNQPQHF
B2: w830 clonotype 5 (TCR)
alpha TRAV12-1*01 TRAJ43*01 CDR3: CVVNANDMRF
beta TRBV10-3*01 TRBJ2-2*01 CDR3: CAIRARDQNTGELFF
B3: w678 clonotype 4 (TCR)
alpha TRAV12-1*01 TRAJ45*01 CDR3: CVVATYSGGGADGLTF
beta TRBV10-2*01 TRBJ2-3*01 CDR3: CASSSGNPSTDTQYF
B4: w876 clonotype 5 (TCR)
alpha TRAV38-1*01 TRAJ23*01 CDR3: CAYNQGGKLIF
beta TRBV10-2*01 TRBJ2-2*01 CDR3: CASSVLNTGELFF
B5: w678 clonotype 2 (TCR)
alpha TRAV38-1*01 TRAJ43*01 CDR3: CAFRVSHDMRF
beta TRBV19*01 TRBJ2-1*01 CDR3: CASSIIAGSSYNEQFF
B6: w678 clonotype 5 (TCR)
alpha TRAV38-1*01 TRAJ43*01 CDR3: CAFRVSHDMRF
beta TRBV10-2*01 TRBJ2-3*01 CDR3: CASSSGNPSTDTQYF

The first assay deals with T1, MCPyV (Merkel cell polyomavirus) common T-Ag peptide on HLA-A*02:01 (human).
T1 peptide: KLLEIAPNC
Nature of the assay: multimer staining.
Regarding B1, the binding result is “recognises”.
Still for that read-out and setting: to B2 belongs “recognises”; to B3, “recognises”; to B4, “recognises”.

The next assay addresses T2, MCPyV (Merkel cell polyomavirus) common T-Ag peptide on HLA-A*02:01 (human).
T2 peptide: KLLEIAPNC
Nature of the assay: multimer staining.
On to B3, for which the binding result was “recognises”.
For B5, the binding result is “recognises”.
On to B6, for which the binding result is “recognises”.

The values are drawn from PMC5421625 (2017).
